Measurements: the domain aggregation screens of Martell et al. (2025)

experiment: soluble fraction after stress (log2 fold change); higher = more stays soluble; pooled small domains, quantitative proteomics; details: stress: 75 degC
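Note: 20 min heating vs room temperature control held 20 min.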

| Sequence | soluble fraction (log2) |
| --- | --- |
| HMNILKAPMPGLILDVIVKESDLVKKGDPVIILEAMKMENILSSPVDGIVKEIKVNPQQTVEKNNTLIKFE | -0.0843 |
| HMNILNFSENIIKLRHKKGITQEELADFVGVTKASVSKWETKQSLPDIMLLPRLAAYFDVTVDELLGYEP | -2.16 |
| HMNINHEINIKSKKKISILENNPNLSQFYLTKNPDQYNYNLVFSDKSELNKLKEKLESDNEVEDIDIRYG | -0.0517 |
| HMNINTEMEKVSYSLGVNIASSLKQQGWELDAKSLSDAFVDVFNGNKLLIDEKEASSILQNYQQKIANK | 0.0321 |
| HMNIQKYFAGREQFIELLEAVGIRTLEQFASADPSTVLPELHQAKRMLKLQTEIPSAPVFREWVNQALS | -0.636 |
| HMNIQPAMLNAANGGVAWKERGISMSQIMKRNAHTAEGSQKLWDYAFENFFQKNIDAGNIRDDR | -0.157 |
| HMNIVKGDTTANVRVVQQRLYNLGYYTYKVDGIWGTRTKTAVKKFQKDKGLVADGIVGAKTEKALGITLT | -2.35 |
| HMNIVVSSIDSNSFEIVNKETGEQAVISYDKETKKGFVLINGVKKEFFQDGNKVYYDGYVIAE | 0.0406 |
| HMNKDEFLNELKSYLSILEDEEQADILEEYTQHIDMKISTGLSEAEAIRDFGNVSELAAQILEAY | -0.465 |
| HMNKIGTIVSINGPIVKTAGDVGFVMHEMVYVGKEKLVGEVIGLTTDFTIVEVYEETSGIKPGETIEGT | -1.87 |
| HMNKKEIISVLEKIIPPSQIKNINIFGSELVIDLNIDNPSLHAKKKLEKSIMSSFDENLKIIVNFSVE | -0.252 |
| HMNKLSISALAETVSTKRKEKSMTQQDLSDATGINRALISRLEQKDFIPSIPQLEKLEEILGFELEEVF | -0.324 |
| HMNKMHKLPSVSEILNKVRLQKIHNESFIKFKIKEEIDRYRKLAKKDQLFLSRDEITYEIIEKLLNFSMPS | -3.97 |
| HMNKMIDAPDLTGLSLEDAKLVLEANKLQLGTVSHEPSDKPEDVVISQDPMEGQEIQQGGKVNLVVSYGD | 0.305 |
| HMNKNNLRNVSSKIRKSRRVLNLSQAELSKKLDISPSYLNLIESGKRPITVPLLIKLGNILGISLKDL | -1.89 |
| HMNKNQIGTNAGIVWKLLSDNVHWEYDKLKHASGLSDRDLNAAIGWLAREDKIDFDIDEQHDRLFL | -0.515 |
| HMNKPKIIINSVDDSVFSDYVKDSLSIAEVARSIGIDNNKINTSVYREIHKRIDSLKLDTSHFTGGAWN | -0.235 |
| HMNKPLFVYPNPVHQGKINLSKATNFMVVDLLGQTVNKTNYGKDFSIDNLPNGVYFIKTTEGEIIKFMK | -0.701 |
| HMNKQEFLNTLRIIFKKANVLDVESIIDVYEEHFAVGYEKGLNDEQIIKSLGTPKEIYTSYVEAGI | -1.31 |

| Sequence | soluble fraction (log2) |
| --- | --- |
| HMNKSGVVLIRVTVDASGRVTSAAYEPKGSTTSDVELVAEARKAALRTRFTESRTVIEGGVITYIFKL | -2.59 |
| HMNKSYTVPDVRGMTVEEAQEAEGVKDIFTVHVQGTRKTDEYQPGQIVEQDPIAGRTRKSNFVIEVYVAE | -0.34 |
| HMNKTQLQIEDEVLKPLIAEIFSKSKGRFGARKIRSKLMGLGYTASERRILRLMKELGLSSAG | -1.19 |
| HMNKTVKIPNVSNLSREDAESVLKENGISVNSEVKQIESDTIEKGKVVKTDPSIGTSVKKGRSITIYVSSG | 0.544 |
| HMNKWMQLASEEDKKLFNEAPKEIQDSITESAKFFDIRTKADVDTFWANTGLRQMKQQAMLNESFVNEY | -0.0697 |
| HMNLDMVINKIGIVTEDIKQDKIGEVKVLGKRWSAYSNTELKKDEKVKILSIDGVKLKVEKI | -0.135 |
| HMNLGAHVYWRNHRAYGDFREYEDVGGGREALALPGSTWGTKDPRVAQALFAARLTEFQEARVGR | -0.989 |
| HMNLGVIYSLKAEVRSEPNTFSTRLFEVHEGLKVSINQLENDWVEIELLDGKTGWISNDQIRLI | -2.61 |
| HMNLIFFSENLSTFRKEKGWTQSELAEKLGVKANTISNYEKGISTPDYKIIAKLRELFEMPTDVLLYSNLS | -1.86 |
| HMNLLDYDFFEKMSSKEQEEIVEKVYIDFLNKSTGTNSPFYLKLFEKGKKSYIVNWLNENNF | -1.77 |
| HMNLLSPREKQSLTLYASGLTLREVASELKLSPNSVGKFISRGKFKLNKSGAIVNSKTSIYLELKKRNLI | -0.147 |
| HMNLNESVELGQELLSQALAQLGIRGELSPSTIDKLLAESSAKSMEELYADIGIGKRMPALVARHIFGLMD | -0.627 |
| HMNLQAYQSVLDKLNEEYGTTFRFPTEEELHEVGLTNTVDPRTATVSATEFEKYMRPIAERISQANL | -0.205 |
| HMNLSAREWTSADGSRTFQGELTGFQDGKVKVRRSDGKSLVFAIELLSESDQQFIKTNQLVIAKKDED | 0.0766 |
| HMNLYHALDQQGEVYLTIPPRQSGRGKVTLMIDGRVREMDAMTDGDALKTGSKVRVTEILDENALKVEAM | 0.215 |
| HMNMAEETLDTAAKILKAAEEEFMEKGYGNAKMMSIAARAGVSHSMLHYYYRSKGKLFQMIFDEKA | -1.41 |
| HMNMAEQGISLDSEAGKARFVSQALPLLKQLPDGVFKQRMLNQLADRVEVTADFIAQQLAQLKAA | -0.0979 |
| HMNMAVELEDGTQIFVFSEDGEFAGKRAVIADEEGRPTEENAPAGTHTLRDGRSIVVGEGGVIESVVET | -0.0672 |
| HMNMEYQKAINHIVQMVKDGQLIVGSKIPSERDLSESLGIGRNSTREAISILRGMGLVESRHGSGNYIAKD | -0.2 |
